According to patent US20160137740A1 (AstraZeneca / MedImmune, published 2016):

T1: Recombinant human TNFRSF14 (HVEM) (human, UniProt Q92956 39-202, limits assumed)
T1 construct: Plate-adsorbed antigen of the ELISA
T1 sequence (looked up): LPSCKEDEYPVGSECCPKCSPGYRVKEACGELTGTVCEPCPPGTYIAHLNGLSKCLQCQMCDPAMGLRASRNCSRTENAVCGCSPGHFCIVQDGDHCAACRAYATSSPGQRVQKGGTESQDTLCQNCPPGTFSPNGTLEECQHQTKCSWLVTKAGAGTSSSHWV

T2: Recombinant human TNFRSF6 (FAS) (human, UniProt P25445 26-173)
T2 construct: Plate-adsorbed antigen of the ELISA
T2 sequence (looked up): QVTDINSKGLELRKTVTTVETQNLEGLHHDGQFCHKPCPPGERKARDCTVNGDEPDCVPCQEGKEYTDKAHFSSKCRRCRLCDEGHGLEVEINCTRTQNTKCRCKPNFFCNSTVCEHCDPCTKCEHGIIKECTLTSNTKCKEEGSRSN

T3: Recombinant human TNFRSF16 (NGFR) (human, UniProt P08138 29-250)
T3 construct: Plate-adsorbed antigen of the ELISA
T3 sequence (looked up): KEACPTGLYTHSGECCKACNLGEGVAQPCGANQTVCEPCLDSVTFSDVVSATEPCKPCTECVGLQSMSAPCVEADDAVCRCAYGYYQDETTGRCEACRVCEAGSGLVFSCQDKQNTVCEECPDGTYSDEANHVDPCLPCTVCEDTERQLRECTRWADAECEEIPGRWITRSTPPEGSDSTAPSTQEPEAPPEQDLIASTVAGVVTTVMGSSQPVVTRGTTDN

T4: Recombinant human TNFRSF18 (GITR) (human, UniProt Q9Y5U5 26-162, limits assumed)
T4 construct: Plate-adsorbed antigen of the ELISA
T4 sequence (looked up): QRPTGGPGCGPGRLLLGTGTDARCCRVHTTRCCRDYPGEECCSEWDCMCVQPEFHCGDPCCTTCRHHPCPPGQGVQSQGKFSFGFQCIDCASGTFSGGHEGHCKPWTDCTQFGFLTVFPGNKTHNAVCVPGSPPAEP

T5: Recombinant human TNFRSF11A (RANK) (human, UniProt Q9Y6Q6 30-212)
T5 construct: Plate-adsorbed antigen of the ELISA; also called CD265
T5 sequence (looked up): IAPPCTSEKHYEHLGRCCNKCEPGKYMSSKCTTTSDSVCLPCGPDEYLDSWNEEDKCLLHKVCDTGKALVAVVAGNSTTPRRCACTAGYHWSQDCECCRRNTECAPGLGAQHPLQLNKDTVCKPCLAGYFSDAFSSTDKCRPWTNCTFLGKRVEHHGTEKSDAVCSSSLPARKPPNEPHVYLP

T6: Recombinant human TNFRSF11B (OPG) (human, UniProt O00300 22-401, limits assumed)
T6 construct: Plate-adsorbed antigen of the ELISA; also called osteoprotegerin
T6 sequence (looked up): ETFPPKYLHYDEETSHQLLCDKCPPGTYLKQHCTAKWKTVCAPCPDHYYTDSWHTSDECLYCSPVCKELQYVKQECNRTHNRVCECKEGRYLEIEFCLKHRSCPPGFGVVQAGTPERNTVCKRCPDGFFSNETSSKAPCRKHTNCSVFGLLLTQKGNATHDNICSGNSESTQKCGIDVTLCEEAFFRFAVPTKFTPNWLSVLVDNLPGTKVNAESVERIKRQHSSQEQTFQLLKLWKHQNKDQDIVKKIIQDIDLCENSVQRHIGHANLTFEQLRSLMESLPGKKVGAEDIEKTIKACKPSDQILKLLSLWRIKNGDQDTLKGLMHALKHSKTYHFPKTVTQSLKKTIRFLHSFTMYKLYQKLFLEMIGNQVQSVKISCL

T7: Recombinant human TNFRSF1β (TNFRII) (human, UniProt P20333 23-257)
T7 construct: Plate-adsorbed antigen of the ELISA; also called TNFR2; TNFRSF1B
T7 sequence (looked up): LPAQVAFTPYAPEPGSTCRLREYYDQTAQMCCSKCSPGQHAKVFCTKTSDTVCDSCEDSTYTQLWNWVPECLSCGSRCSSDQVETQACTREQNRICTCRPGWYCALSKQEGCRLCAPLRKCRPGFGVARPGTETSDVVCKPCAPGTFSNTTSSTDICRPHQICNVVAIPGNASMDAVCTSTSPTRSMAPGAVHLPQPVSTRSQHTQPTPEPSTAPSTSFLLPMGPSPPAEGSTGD

T8: Recombinant human TNFRSF21 (DR6) (human, UniProt O75509 42-349, limits assumed)
T8 construct: Plate-adsorbed antigen of the ELISA
T8 sequence (looked up): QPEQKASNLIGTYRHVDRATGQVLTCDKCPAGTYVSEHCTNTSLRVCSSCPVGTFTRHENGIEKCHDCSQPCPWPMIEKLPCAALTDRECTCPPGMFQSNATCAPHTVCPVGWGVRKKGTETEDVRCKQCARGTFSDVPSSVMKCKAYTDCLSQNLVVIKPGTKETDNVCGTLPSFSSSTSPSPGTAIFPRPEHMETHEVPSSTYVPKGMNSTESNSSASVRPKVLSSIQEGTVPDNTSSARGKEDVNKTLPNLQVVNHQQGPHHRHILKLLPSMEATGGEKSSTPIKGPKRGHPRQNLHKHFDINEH

T9: Mouse OX40 (mouse, UniProt P47741 20-272)
T9 construct: also called mOX40; murine OX40
T9 sequence: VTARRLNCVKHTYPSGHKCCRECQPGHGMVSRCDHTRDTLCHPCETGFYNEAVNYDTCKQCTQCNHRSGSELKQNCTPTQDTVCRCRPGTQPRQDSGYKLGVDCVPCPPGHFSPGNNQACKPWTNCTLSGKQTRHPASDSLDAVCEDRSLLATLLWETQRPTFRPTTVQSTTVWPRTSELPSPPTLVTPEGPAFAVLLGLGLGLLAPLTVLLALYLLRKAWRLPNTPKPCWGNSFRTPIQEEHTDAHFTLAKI

B1: OX40mAb29 (antibody, human IgG1, kappa)
heavy: QVQLQESGPGLVKPSQTLSLTCAVYGGSFSSGYWNWIRKHPGKGLEYIGYISYNGITYHNPSLKSRITINRDTSKNQYSLQLNSVTPEDTAVYYCARYKYDYDGGHAMDYWGQGTLVTVSSASTKGPSVFPLAPSSKSTSGGTAALGCLVKDYFPEPVTVSWNSGALTSGVHTFPAVLQSSGLYSLSSVVTVPSSSLGTQTYICNVNHKPSNTKVDKRVEPKSCDKTHTCPPCPAPEFEGGPSVFLFPPKPKDTLMISRTPEVTCVVVDVSHEDPEVKFNWYVDGVEVHNAKTKPREEQYNSTYRVVSVLTVLHQDWLNGKEYKCKVSNKALPASIEKTISKAKGQPREPQVYTLPPSREEMTKNQVSLTCLVKGFYPSDIAVEWESNGQPENNYKTTPPVLDSDGSFFLYSKLTVDKSRWQQGNVFSCSVMHEALHNHYTQKSLSLSPGK
light: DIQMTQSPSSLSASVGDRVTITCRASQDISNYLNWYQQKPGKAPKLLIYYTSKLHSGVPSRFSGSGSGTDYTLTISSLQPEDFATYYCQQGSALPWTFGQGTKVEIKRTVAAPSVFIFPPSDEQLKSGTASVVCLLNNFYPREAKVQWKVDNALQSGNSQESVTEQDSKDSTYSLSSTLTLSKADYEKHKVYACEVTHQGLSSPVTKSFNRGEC
notes: also called Anti OX40 mAb29; IgG1 triple mutant (IgG1-TM) version of OX40mAb24
B2: Rat anti-mouse OX40, clone OX86 (antibody, V domains shown)
VH: QVQLKESGPGLVQPSQTLSLTCTVSGFSLTGYNLHWVRQPPGKGLEWMGRMRYDGDTYYNSVLKSRLSISRDTSKNQVFLKMNSLQTDDTAIYYCTRDGRGDSFDYWGQGVMVTVSS
VL: DIVMTQGALPNPVPSGESASITCRSSQSLVYKDGQTYLNWFLQRPGQSPQLLTYWMSTRASGVSDRFSGSGSGTYFTLKISRVRAEDAGVYYCQQVREYPFTFGSGTKLEIK
notes: Rat IgG1κ; also called anti-mouse CD134 (OX86 clone) antibody

Key:
[1] = target: T1, Recombinant human TNFRSF14 (HVEM); assay: ELISA, plate coated with a dilution series of the recombinant TNFRSF protein [panel A]
Method: (§1) An eight point, two-fold dilution series of each recombinant human TNFRSF protein was prepared after dilution of stock proteins to 5 μg/mL in PBS. Subsequently, 50 μL of each antigen dilution was transferred in duplicate to wells of a Nunc 96-well MaxiSorp flat bottom plate, and incubated overnight at 4° C. to adsorb proteins to the plate. Afterwards, plates were washed three times with PBS in a BioTek® plate washer to remove unbound protein. Anti OX40 mAb29, 9B12, and control antibodies were diluted in PBS to a final concentration of 10 μg/mL, and 50 μL of mAb were added to each well and incubated at room temperature for one hour to bind mAb to plate-bound protein. Thereafter, wells were washed with PBS/Tween-20 0.1% (volume/volume) using a BioTek® plate washer. HRP conjugated goat anti-human or goat anti-mouse secondary antibodies at 10 μg/mL was added to each well and incubated at room temperature for 1 hour. After three washes in PBS/Tween-20 0.1%, 50 μL of TMB substrate was added to each well and incubated at room temperature for 5 minutes to develop the colorimetric product. Reactions were stopped by adding 50 μL of 0.5 molar H₂SO₄ to wells, and plates read immediately at 450 nm using an Envision C plate reader for detection of the colorimetric product.

[2] = target: T2, Recombinant human TNFRSF6 (FAS); assay: as above
Method: as §1

[3] = target: T3, Recombinant human TNFRSF16 (NGFR); assay: as above
Method: as §1

[4] = target: T4, Recombinant human TNFRSF18 (GITR); assay: as above
Method: as §1

[5] = target: T10, Recombinant human TNFRSF9 (CD137) (human, UniProt Q07011 24-186, limits assumed); assay: as above
T10 construct: Plate-adsorbed antigen of the ELISA
Method: as §1

[6] = target: T5, Recombinant human TNFRSF11A (RANK); assay: as above
Method: as §1

[7] = target: T11, Recombinant human TNFRSF3 (LTβR) (human, UniProt P36941 28-227, limits assumed); assay: as above
T11 construct: Plate-adsorbed antigen of the ELISA
T11 sequence (P36941 28-227 limits assumed): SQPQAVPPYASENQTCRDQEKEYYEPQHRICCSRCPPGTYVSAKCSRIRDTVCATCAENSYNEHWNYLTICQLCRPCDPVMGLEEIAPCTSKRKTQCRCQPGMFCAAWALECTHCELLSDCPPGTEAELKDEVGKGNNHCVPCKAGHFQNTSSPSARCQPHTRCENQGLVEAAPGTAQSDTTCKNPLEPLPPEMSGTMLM
Method: as §1

[8] = target: T6, Recombinant human TNFRSF11B (OPG); assay: as above
Method: as §1

[9] = target: T12, Recombinant human TNFRSF5 (CD40) (human, UniProt P25942 21-193); assay: as above
T12 construct: Plate-adsorbed antigen of the ELISA
T12 sequence (P25942 21-193 limits assumed): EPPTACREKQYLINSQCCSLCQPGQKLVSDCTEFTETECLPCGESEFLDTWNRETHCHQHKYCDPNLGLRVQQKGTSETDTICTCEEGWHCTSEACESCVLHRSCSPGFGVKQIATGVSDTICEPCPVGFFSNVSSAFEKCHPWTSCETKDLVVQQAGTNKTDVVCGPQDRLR
Method: as §1

[10] = target: T7, Recombinant human TNFRSF1β (TNFRII); assay: as above
Method: as §1

[11] = target: T8, Recombinant human TNFRSF21 (DR6); assay: as above
Method: as §1

Mouse OX40 = target: T9, Mouse OX40; assay: flow cytometry on activated primary mouse CD4+ T cells
Method: Mouse CD4⁺ T cells (150,000 per well in 100 μL complete medium) were cultured overnight in 96-well plates coated with 2 μg/mL each hamster anti-mouse CD3 and hamster anti-mouse CD28 antibodies to activate T cells and induce OX40 expression. Activated CD4⁺ T cells were removed from the incubation plate and 100,000 cells were transferred to each well of a non-tissue culture-treated 96-well round-bottom plate for binding assays and washed once with FACS buffer. Binding was performed with 10 μg/mL of OX40mAb24, 9B12 and rat anti-mouse OX40, clone OX86 (positive control) antibodies each serially diluted 3-fold in FACS buffer for a 10-point data curve. For negative controls, 10 μg/mL R347 human IgG1, MOPC-21 mouse IgG1 or RTK2071 rat IgG1 were diluted 6-fold for a 3 point data curve. FACS buffer (50 μL) containing OX40mAb24, or antibodies, was added to CD4⁺ T cells in duplicate and incubated. Following primary incubation, cells were washed with 200 μL of 4° C. […] Following secondary antibody incubation, cells were washed with 4° C. FACS buffer (200 μL per wash) and suspended in 100 μL FACS buffer for flow cytometry analysis on a BD LSRII flow cytometer as described in Section 2.3.

binding result [1] | binding result [2] | binding result [3] | binding result [4] | binding result [5] | binding result [6] | binding result [7] | binding result [8] | binding result [9] | binding result [10] | binding result [11] | binding result (Mouse OX40) | Binder
no binding | no binding | no binding | no binding | no binding | no binding | no binding | no binding | no binding | no binding | no binding |  | B1
 |  |  |  |  |  |  |  |  |  |  | binds | B2
